Results: patent publication US20130018010A1, “POLYMERIC CONJUGATES OF ADENINE NUCLEOSIDE ANALOGS” (ENZON PHARMACEUTICALS, INC., priority 2010, published 2013)

What was measured:
[1] = Hydrolysis rate of PEG conjugates in rat plasma (HPLC); assay type: in vitro ADME; settings: 37° C., disappearance of PEG derivative
Protocol: The rates of hydrolysis were obtained by employing a C18 reversed phase column (Jupiter®) using a gradient mobile phase consisting of (a) 0.05 M TFA buffer and (b) acetonitrile. A flow rate of 1 mL/min was used, and chromatograms were monitored using a UV detector at 260 nm for toyocamycin. For hydrolysis in plasma, the derivatives were dissolved in acetonitrile/MeOH at a concentration of 20 mg/mL. The solution was divided into vials with 100 μL and the solvent removed in vacuo. To the residue, 100 μL of plasma was added, then vortexed for 10 sec. The solutions were incubated at 37° C. for various periods of time. A mixture of methanol-acetonitrile (1:1, v/v, 400 μL) was added to a vial at the proper interval and the mixture was vortexed for 1 min, followed by filtration through […] filter membrane. An aliquot of 40 μL of the filtrate was injected into the HPLC. On the basis of the peak area, the amounts of native compound and PEG conjugates were estimated, and the half-life of each compound in different media was calculated using linear regression analysis from the disappearance of PEG derivative.
The rate of hydrolysis was measured by monitoring disappearance of polymer conjugates and appearance of the parent molecule by HPLC using the procedure for example as described in Example 4 in PBS and in rat plasma.

[2] = system: human melanoma cells (A375); assay: Tumor growth inhibition in mice xenografted with human melanoma; assay type: in vivo; settings: for tumor growth inhibition: 1 or 5 mg/kg/dose (toyocamycin equivalent) at day 1, 5, 9, 13, compared to toyocamycin i.v. 5 mg/kg/dose, FIG. 18; for tail vein necrosis: 1 or 5 mg/kg/dose at day 1, 5, 9, 13; for effectiveness in the treatment of melanoma: versus untreated, toyocamycin, or 54
Protocol: The antitumor efficacies of compounds 6, 10, and 54 evaluated in human melanoma xenografted mice. Xenograft tumors were established in mice by injecting human melanoma cells (A375). The mice were treated with toyocamycin i.v. at 5 mg/kg/dose, or compounds 6, 10, and 54 at 1 or 5 mg/kg/dose (based on the amount of toyocamycin) at day 1, 5, 9, and 13. Control group mice received saline solution.

| Substance | t1/2 in rat plasma [1] | tumor growth inhibition [2] | tail vein necrosis [2] | effectiveness in the treatment of melanoma [2] |
| --- | --- | --- | --- | --- |
| 40 k 4-Arm PEG-carbamate-Leu-Toyocamycin [Compound 6] | 0.033 h | inhibited tumor growth significantly compared to toyocamycin | observed in only one mouse | more effective in the treatment of melanoma than untreated, toyocamycin, or 54 |
| 40 k 4-Arm PEG-Carbamate-Aib-Toyocamycin [Compound 10] | 4.1 h | inhibited tumor growth significantly compared to toyocamycin | observed in only one mouse | more effective in the treatment of melanoma than untreated, toyocamycin, or 54 |
